The results in this text go back to publication PMC10694151, “Regulation of the cell division hydrolase RipC by the FtsEX system in Mycobacterium tuberculosis” (Nature Communications, 2023).

This assay has as its target T1, RipC (Rv2190c) of Mycobacterium tuberculosis, construct RipCΔ33 (Mycobacterium tuberculosis, UniProt P9WHU3 34-385).
T1 construct: also called MtbRipC; RipC∆33
T1 sequence: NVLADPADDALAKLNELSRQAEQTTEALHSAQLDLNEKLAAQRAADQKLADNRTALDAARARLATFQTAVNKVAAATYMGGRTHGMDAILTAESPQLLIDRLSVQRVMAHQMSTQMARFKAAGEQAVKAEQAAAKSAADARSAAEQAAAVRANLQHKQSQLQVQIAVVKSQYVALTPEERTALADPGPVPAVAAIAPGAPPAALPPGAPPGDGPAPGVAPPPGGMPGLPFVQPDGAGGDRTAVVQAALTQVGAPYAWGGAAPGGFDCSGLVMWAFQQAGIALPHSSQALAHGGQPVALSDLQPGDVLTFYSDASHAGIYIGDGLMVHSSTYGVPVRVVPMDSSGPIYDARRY
Kind of assay: cryo-EM structure; FtsEX or FtsEX-RipC in peptidiscs, 3 mg/ml, ATP-free. The conditions noted are these: both partners purified.

B1: FtsX (Rv3101c) of Mycobacterium tuberculosis (natural protein)
chain: MRFGFLLNEVLTGFRRNVTMTIAMILTTAISVGLFGGGMLVVRLADSSRAIYLDRVESQVFLTEDVSANDSSCDTTACKALREKIETRSDVKAVRFLNRQQAYDDAIRKFPQFKDVAGKDSFPASFIVKLENPEQHKDFDTAMKGQPGVLDVLNQKELIDRLFAVLDGLSNAAFAVALVQAIGAILLIANMVQVAAYTRRTEIGIMRLVGASRWYTQLPFLVEAMLAATMGVGIAVAGLMVVRALFLENALNQFYQANLIAKVDYADILFITPWLLLLGVAMSGLTAYLTLRLYVRR
notes: also called MtbFtsX
Regarding B1, the binding result was “binds”.
